According to patent publication US20220242939A1 (BIOARCTIC, published 2022):
Non-standard residues stand in square brackets, D forms with d. No end group written: not given here. Ahx = NCCCCCC(=O)O

Target: T1, A199 N-terminal neo-epitope peptide AGQPLQ-Acp-C (SEQ ID NO:51) conjugated to BSA (human, not fully specified (residue 8); printed as AGQPLQ-Acp-C; also: C-terminal Cys conjugated to BSA carrier)
T1 construct: BSA carrier; also called A199-BSA peptide
T1 peptide: AGQPLQ[Ahx]C
Assay: direct ELISA, second protocol; proteins coated at 0.1 uM, BSA peptides at 1 ug/ml; antibody in 3-fold dilutions from 3000 ng/ml; blank reduced OD 450 nm
Method: The screening was performed according to standard ELISA protocols. Briefly, 1 μg/ml solutions of BSA-conjugated neo-epitope peptides, recombinant C-terminal ApoE fragment, negative control peptide and full-length ApoE were prepared by dilution in PBS. 50 μl/well were added to an ELISA half-area 96 well microtiter plate, the plate was sealed with adhesive sealer and incubated over night at 4° C. After discarding the solution, the plates were blocked with 150 μl/well of protein-free blocking solution (Pierce) for 1 h at room temperature with shake (900 rpm). The plates were washed four times with washing buffer containing 0.28 mM NaH₂PO₄, 2.5 mM Na₂HPO₄, 150 mM NaCl, 0.1% TWEEN®-20 and 0.0075% Kathon CG. […] An anti-ApoE C-terminal antibody was used as a reference antibody (ApoE E-8 mouse monoclonal, cat. no. sc-393302; Santa Cruz Biotechnology). 50 μl/well were added into the ELISA plates and incubated for 2 h at room temperature with shake (900 rpm). The plates were washed four times as described previously. […] After another wash (as described previously), 50 μl/well of K-Blue® aqueous substrate (Neogen) were added, and the reaction was stopped after 5-15 min with 50 μl/well of 0.5 M […]. The optical density at 450 nm was read using an ELISA reader (Tecan). The optical density was plotted against the antibody concentration to generate concentration-response curves (FIG. 16).
These were added in the same molarity (0.1 μM) to provide an equal number of molecules available for binding by the antibodies (BSA-coupled peptides were coated at 1 μg/ml as before).

- EC50 (read off the curve): ~0.1 µg/mL
B1: 28F2, recombinant IgG2c antibody (antibody, V domains shown)
VH: QIQLVQSGPDLKKPGETVKISCKASGYTFTNYAMHWMKQAPGKALKWMGWINTYTGEPTFADDFKGRFAFSLETSASTAYLQINSLKNEDMATYFCAREGYYDRSHYFDYWGQGTTLTVSS
VL: DVLMTQTPLSLPVSLGDQASISCRSSLSLVHGDGNTYLEWYLQKPGQSPKLLIYKVSNRFSGVPDRFSGSGSGTDFTLKISRVEAEDLGVYYCLQGSHIPFTFGSGTKLEIK
